Measured values published in patent US20230220589A1.

B1: engineered M44-L binder (SEQ ID NO: 21) (designed binder, not shown: small tags and cut ends; large carriers)
chain: QVSVQPNFQQDKFLGRWFYAGHASNSSWYREKVAALSMAKLVVAPATDGGLNATETFLRKNQCETITSLLQPAGSLGSYSSRSPHGGSTWSTSVVETDYDQYALLYLQGSKGPGEDFRGAILASRTQTPRAELKEKFTAFSKAQGFTEDTIVFLPQTDKCMTEQ
B2: engineered M44-A binder (SEQ ID NO: 42) (designed binder, not shown: small tags and cut ends; large carriers)
chain: QVSVQPNFQQDKFLGRWFVAGLASNSSWDREKVAALSGAKMVVAPATDGGLNVTRTMLRKNQCETYTGLLQPAGSLGSYSWRSPHPGSTGSESVVETDYDQYALVYGQGSKGPGEDLRAAALWSRTQTPRAELKEKFTAFSKAQGFTEDTIVFLPQTDKCMTEQ
B3: engineered M44-L binder (SEQ ID NO: 31) (designed binder, not shown: small tags and cut ends; large carriers)
chain: QDSTQNLIPAPPLISVPLQPGFWTERFQGRWFLVGFAGNAVQKERQSRLTMQSLILELQEDNSYNITAINVRGQGCRYIISTLVPSSRPGQFTLGNIHSYPQIQSLDVQVADTDYDQFAMVFLQGTSENKQYFEVALAGRTKGLSDELKERFVSFAKSLGLKDNNIVFSVPTDQCIDN

Target: M44-modified E NTAA target peptides
Assay: encoding assay; P2 G

encoding yield	Binder
0.01	B1
0.03	B2
0.02	B3

Target: M44-modified F NTAA target peptides (M44-F-P2-peptide)
Assay: encoding assay; P2 G

encoding yield	Binder
0.03	B1
0.04	B2
0.09	B3

Target: M44-modified L NTAA target peptides (M44-L-P2-peptide)
Assay: encoding assay; P2 G

encoding yield	Binder
0.07	B1
0.03	B2
0.09	B3

Target: M44-modified M NTAA target peptides
Assay: encoding assay; P2 G

encoding yield	Binder
0.01	B1
0.01	B2
0.02	B3

Target: M44-modified Q NTAA target peptides
Assay: encoding assay; P2 G

encoding yield	Binder
0.01	B1
0.02	B2
0.01	B3

Target: M44-modified T NTAA target peptides
Assay: encoding assay; P2 G

encoding yield	Binder
0.02	B1
0.11	B2
0.04	B3

Target: M44-modified V NTAA target peptides
Assay: encoding assay; P2 G

encoding yield	Binder
0.02	B1
0.05	B2
0.02	B3

Target: M44-modified W NTAA target peptides
Assay: encoding assay; P2 G

encoding yield	Binder
0.01	B1
0.01	B2
0.04	B3

Target: M44-modified Y NTAA target peptides (M44-Y-P2-peptide)
Assay: encoding assay; P2 G

encoding yield	Binder
0.01	B1
0.02	B2
0.03	B3

Target: M44-modified A NTAA target peptides (M44-A-P2-peptide)
Assay: encoding assay; P2 L

encoding yield	Binder
0.01	B1
0.37	B2
0.03	B3

Target: M44-modified D NTAA target peptides
Assay: encoding assay; P2 L

encoding yield	Binder
0.01	B1
0.02	B2
0.03	B3

Target: M44-modified E NTAA target peptides
Assay: encoding assay; P2 L

encoding yield	Binder
0.01	B1
0.03	B2
0.03	B3

Target: M44-modified F NTAA target peptides (M44-F-P2-peptide)
Assay: encoding assay; P2 L

encoding yield	Binder
0.01	B1
0.02	B2
0.06	B3

Target: M44-modified G NTAA target peptides (M44-G-P2-peptide)
Assay: encoding assay; P2 L

encoding yield	Binder
0.01	B1
0.16	B2
0.02	B3

Target: M44-modified H NTAA target peptides
Assay: encoding assay; P2 L

encoding yield	Binder
0.01	B1
0.03	B2
0.03	B3

Target: M44-modified I NTAA target peptides (M44-I-P2-peptide)
Assay: encoding assay; P2 L

encoding yield	Binder
0.03	B1
0.03	B2
0.06	B3

Target: M44-modified L NTAA target peptides (M44-L-P2-peptide)
Assay: encoding assay; P2 L

encoding yield	Binder
0.22	B1
0.18	B2
0.46	B3

Target: M44-modified M NTAA target peptides
Assay: encoding assay; P2 L

encoding yield	Binder
0.03	B1
0.04	B2
0.08	B3

Target: M44-modified N NTAA target peptides
Assay: encoding assay; P2 L

encoding yield	Binder
0.02	B1
0.05	B2
0.17	B3

Target: M44-modified P NTAA target peptides
Assay: encoding assay; P2 L

encoding yield	Binder
0.01	B1
0.02	B2
0.02	B3

Target: M44-modified Q NTAA target peptides
Assay: encoding assay; P2 L

encoding yield	Binder
0.02	B1
0.04	B2
0.04	B3

Target: M44-modified S NTAA target peptides
Assay: encoding assay; P2 L

encoding yield	Binder
0.02	B1
0.27	B2
0.05	B3

Target: M44-modified T NTAA target peptides
Assay: encoding assay; P2 L

encoding yield	Binder
0.01	B1
0.11	B2
0.02	B3

Target: M44-modified V NTAA target peptides
Assay: encoding assay; P2 L

encoding yield	Binder
0.02	B1
0.15	B2
0.04	B3

Target: M44-modified W NTAA target peptides
Assay: encoding assay; P2 L

encoding yield	Binder
0.02	B1
0.02	B2
0.05	B3

Target: M44-modified Y NTAA target peptides (M44-Y-P2-peptide)
Assay: encoding assay; P2 L

encoding yield	Binder
0.03	B1
0.07	B2
0.09	B3

Target: M44-modified E NTAA target peptides
Assay: encoding assay; P2 T

encoding yield	Binder
0.01	B1
0.01	B2
0.01	B3

Target: M44-modified F NTAA target peptides (M44-F-P2-peptide)
Assay: encoding assay; P2 T

encoding yield	Binder
0.02	B1
0.04	B2
0.05	B3

Target: M44-modified G NTAA target peptides (M44-G-P2-peptide)
Assay: encoding assay; P2 T

encoding yield	Binder
0.01	B1
0.07	B2
0.04	B3

Target: M44-modified I NTAA target peptides (M44-I-P2-peptide)
Assay: encoding assay; P2 T

encoding yield	Binder
0.14	B1
0.05	B2
0.07	B3

Target: M44-modified L NTAA target peptides (M44-L-P2-peptide)
Assay: encoding assay; P2 T

encoding yield	Binder
0.1	B1
0.05	B2
0.15	B3

Target: M44-modified N NTAA target peptides
Assay: encoding assay; P2 T

encoding yield	Binder
0.01	B1
0.03	B2
0.02	B3

Target: M44-modified P NTAA target peptides
Assay: encoding assay; P2 T

encoding yield	Binder
0.01	B1
0.05	B2
0.02	B3

Target: M44-modified Q NTAA target peptides
Assay: encoding assay; P2 T

encoding yield	Binder
0.01	B1
0.05	B2
0.02	B3

Target: M44-modified T NTAA target peptides
Assay: encoding assay; P2 T

encoding yield	Binder
0.01	B1
0.1	B2
0.04	B3

Target: M44-modified V NTAA target peptides
Assay: encoding assay; P2 T

encoding yield	Binder
0.02	B1
0.05	B2
0.04	B3

Target: M44-modified Y NTAA target peptides (M44-Y-P2-peptide)
Assay: encoding assay; P2 T

encoding yield	Binder
0.02	B1
0.05	B2
0.07	B3

Target: M44-modified A NTAA target peptides (M44-A-P2-peptide)
Assay: encoding assay; P2 V

encoding yield	Binder
0.01	B1
0.17	B2
0.04	B3

Target: M44-modified D NTAA target peptides
Assay: encoding assay; P2 V

encoding yield	Binder
0.01	B1
0.03	B2
0.03	B3

Target: M44-modified F NTAA target peptides (M44-F-P2-peptide)
Assay: encoding assay; P2 V

encoding yield	Binder
0.04	B1
0.09	B2
0.19	B3

Target: M44-modified H NTAA target peptides
Assay: encoding assay; P2 V

encoding yield	Binder
0.01	B1
0.05	B2
0.04	B3

Target: M44-modified I NTAA target peptides (M44-I-P2-peptide)
Assay: encoding assay; P2 V

encoding yield	Binder
0.09	B1
0.05	B2
0.09	B3

Target: M44-modified L NTAA target peptides (M44-L-P2-peptide)
Assay: encoding assay; P2 V

encoding yield	Binder
0.09	B1
0.04	B2
0.18	B3

Target: M44-modified M NTAA target peptides
Assay: encoding assay; P2 V

encoding yield	Binder
0.08	B1
0.04	B2
0.05	B3

Target: M44-modified N NTAA target peptides
Assay: encoding assay; P2 V

encoding yield	Binder
0.01	B1
0.04	B2
0.05	B3

Target: M44-modified P NTAA target peptides
Assay: encoding assay; P2 V

encoding yield	Binder
0.01	B1
0.04	B2
0.02	B3

Target: M44-modified Q NTAA target peptides
Assay: encoding assay; P2 V

encoding yield	Binder
0.01	B1
0.04	B2
0.02	B3

Target: M44-modified S NTAA target peptides
Assay: encoding assay; P2 V

encoding yield	Binder
0.01	B1
0.05	B2
0.04	B3

Target: M44-modified T NTAA target peptides
Assay: encoding assay; P2 V

encoding yield	Binder
0.01	B1
0.12	B2
0.03	B3

Target: M44-modified W NTAA target peptides
Assay: encoding assay; P2 V

encoding yield	Binder
0.02	B1
0.06	B2
0.1	B3

Target: M44-modified Y NTAA target peptides (M44-Y-P2-peptide)
Assay: encoding assay; P2 V

encoding yield	Binder
0.02	B1
0.06	B2
0.07	B3
